From PMC12063641
Where “and” joins values, the source holds several entries; their conditions need not be identical. Equal entries are not always repeated.

Experiments:
[1] = target: HIV-1 NL4-3 matrix protein p17 (MA) L20K, in mature virions or VLPs (HIV-1 (NL4-3)); assay: SDS-resistant oligomer bands on SDS-PAGE and Western blot
[2] = target: purified recombinant MA L20K/E73K/A82T mutant protein (HIV-1); assay: SDS-PAGE of purified protein (SDS-resistant oligomer bands)
[3] = target: HIV-1 NL4-3 Gag polyprotein precursor Pr55Gag with MA-L20K/E73K/A82T, uncleaved in immature VLPs (PR-D25N) (HIV-1 (NL4-3)); assay: cryo-EM structure
[4] = target: HIV-1 NL4-3 matrix protein p17 (MA) L20K/E73K/A82T, in mature virions or VLPs (HIV-1 (NL4-3)); assay: SDS-resistant oligomer bands on SDS-PAGE and Western blot

With “HIV-1 NL4-3 matrix protein p17 (MA) L20K, in mature virions or VLPs (natural protein)” the stoichiometry N [1] was 2 and 3.

In the case of “purified recombinant MA L20K/E73K/A82T mutant protein (domain or fragment)”, the stoichiometry N [2] is reported as 2 and 3.

“HIV-1 NL4-3 Gag polyprotein precursor Pr55Gag with MA-L20K/E73K/A82T, uncleaved in immature VLPs (PR-D25N) (natural protein)” was tested, and the stoichiometry N [3] was 3 and 6.

“HIV-1 NL4-3 matrix protein p17 (MA) L20K/E73K/A82T, in mature virions or VLPs (natural protein)” was tested, and the stoichiometry N [4] was 2 and 3.
